Results taken from US5532348.

How the values were obtained:
[1] = biological target: HPV16 E6, wheat germ extract translated (human papillomavirus type 16) (UniProt P03126)
[2] = biological target: HPV16 E6, wheat germ extract translated (human papillomavirus type 16) (UniProt P03126); remark: listed apart in the source

Substance	molar excess for fifty percent binding competition [1]	percent of the input 35S-labeled HPV16 E6 bound [2] [%]
synthetic peptide consisting of the 18 mer region, amino acids 391 to 408 of SEQ ID NO:1 (SEQ ID NO:3)	5000	–
GST-E6-AP fusion protein with amino acids 371 to 440 of SEQ ID NO:1 (SEQ ID NO:2)	–	50
GST-E6-AP fusion protein, amino-terminal portion (amino acids 213 to 489 of SEQ ID NO:1)	–	50
